Reference: patent US12698483B2 (priority 2019, dated 2026)
Entries after “also recorded” stand apart in the source; their conditions may differ.

How the values were obtained:
Type in all cases: biochemical
[1] = Enzymatic DON-GSH conjugation assay (LC-HRMS, Orbitrap); settings: 100 ppm DON, 5 mM GSH, pH6, within 24 hours; for formation of the Michael adduct of DON (MH1): against nonenzymatic background; for formation of the epoxide adduct of DON (MH2, DON-13-GSH): result in words
[2] = Enzyme dependent formation of the GSH adduct with T-2 toxin; settings: FIG. 11; pCA02 empty vector and no protein as controls
[3] = Enzyme dependent formation of the GSH adduct with trichodermin; settings: FIG. 14; pCA02 empty vector and no protein as controls
[4] = Enzyme dependent formation of the GSH adduct with roridin A; settings: FIG. 17; pCA02 empty vector and no protein as controls

B1: TrGST-C12 (protein, listed as Triticum aestivum)
chain: MAGGDDLKLLGAWASPFVARVKLALSFKGLSFEDVEEDLSNKSELLLSSNPVHKKVPVLVHNGKPICESMIIVQYIDEAFLVGPSLLPSDPYKRAIARFWAAYIDDKLVTPWVQSLRAKTEEEKSEGVKQTFAAVETLEGALRECSKGEGYFGGETVGLVDISLGSLLSWLIATEVMSGTKIFDPVKTPLLAAWMGRFSELDAAKAALPEVDRVVEFAKKRQAQADAAAAASETK
**Q.** Which “formation of the Michael adduct of DON (MH1)” value [1] does the source give for B1 here?
**A.** clearly enhance Michael adduct formation; also recorded: clearly catalyze

**Q.** And the “formation of the epoxide adduct of DON (MH2, DON-13-GSH)” value [1]?
**A.** clearly catalyze the formation of the epoxide-adduct; also recorded: catalyzed

**Q.** And the “formation of the GSH adduct with T-2 toxin (T-2-GSH_MH)” value [2]?
**A.** Enzyme dependent formation of the GSH adduct

**Q.** What about the “formation of the GSH adduct with trichodermin (Trichodermin-GSH_MH)” value [3] of the same molecule?
**A.** Enzyme dependent formation of the GSH adduct

**Q.** And the “formation of the GSH adduct with roridin A (Roridin-GSH_MH)” value [4]?
**A.** Enzyme dependent formation of the GSH adduct

B2: TrGST-C02 (protein, listed as Triticum aestivum)
chain: MAGGDDLKLLGAWASPFVTRVKLALNFKGLSFEDVEEDLSNKSELLLSSNPVHKKVPVLVHNGKPICESVIIVQYIDEAFAGIGPALLPSDPYERAIARFWAAYVDDKLVAPWVQSLRAKTEEEKSEGLKQTFAAVETLEGALRECSKGEGYFGGETVGLVDISLGSLLSWLNATEVMSGTKIFDPVKTPLLAAWMERFSKLDAAKAALPEVDRVVEFAKKRQAQAAAAAAASETK
**Q.** With B2 as the molecule, how does the “formation of the Michael adduct of DON (MH1)” value [1] read?
**A.** clearly enhance Michael adduct formation; also recorded: clearly catalyze

**Q.** What about the “formation of the epoxide adduct of DON (MH2, DON-13-GSH)” value [1] of the same molecule?
**A.** clearly catalyze the formation of the epoxide-adduct; also recorded: catalyzed

**Q.** And the “formation of the GSH adduct with T-2 toxin (T-2-GSH_MH)” value [2]?
**A.** Enzyme dependent formation of the GSH adduct

**Q.** What about the “formation of the GSH adduct with trichodermin (Trichodermin-GSH_MH)” value [3] of the same molecule?
**A.** Enzyme dependent formation of the GSH adduct

**Q.** And the “formation of the GSH adduct with roridin A (Roridin-GSH_MH)” value [4]?
**A.** Enzyme dependent formation of the GSH adduct
